{
  "source": "paper PMC11509930",
  "about": "“Improving Hydrolytic Activity and Enantioselectivity of Epoxide Hydrolase from Phanerochaete chrysosporium by Directed Evolution” (Molecules, 2024)",
  "proteins": {"B1": {"name": "PchEHA (epoxide hydrolase) (Phanerodontia chrysosporium; G14A/K291R/Y163H) (protein)", "chain": "MDASLFKDFKTSRAFNYHYFYSPAKGPRPTLFFLHGNPSVATDWAQIVPHFTSRGYGVLAPDMLGYGDTDKPTDPALYVSSGMCRNLVDLLDHEGLEKVIAIGHDWGCLSVSRLASYYPERVIAYAFLAASFIGPIPPIPFDAFLEYIKQQVGYELYGYWKFHSEPGLDQFVRDHLDTFLSILWPSDPAVWKTRLAPTGALKQSALEGWTAPLAPYITEEFKKHHVEVFNKNGFEAPACYYRIMTSGLQAEDDKQILPERAVPPKDAPVFFGAANKDYICIPALAYATFKRDEWKDHKITIKEYDADHWLILSHADQVSRDLEAWIEGFASGGQ", "notes": "catalytic triad D105/H308/D277"}, "B2": {"name": "PchEHA (epoxide hydrolase) (Phanerodontia chrysosporium; E251G/G14A/K291R) (protein)", "chain": "B1 chain with H163Y, E251G", "notes": "as for B1"}, "B3": {"name": "PchEHA (epoxide hydrolase) (Phanerodontia chrysosporium) (protein)", "chain": "B1 chain with A14G, H163Y, R291K", "notes": "as for B1"}, "B4": {"name": "PchEHA (epoxide hydrolase) (Phanerodontia chrysosporium; C108S/G14A/K291R) (protein)", "chain": "B1 chain with C108S, H163Y", "notes": "as for B1"}, "B5": {"name": "PchEHA (epoxide hydrolase) (Phanerodontia chrysosporium; A24T/E251G) (protein)", "chain": "B1 chain with A14G, A24T, H163Y, E251G, R291K", "notes": "as for B1"}, "B6": {"name": "PchEHA (epoxide hydrolase) (Phanerodontia chrysosporium; E251G/Y163H) (protein)", "chain": "B1 chain with A14G, E251G, R291K", "notes": "as for B1"}},
  "note": "Numbering of substitutions follows the chain as printed. In names and notes the source's numbering stands.",
  "data": [
    {"substrate": "c1ccc([C@@H]2CO2)cc1", "assay": "purified protein", "assay_type": "biochemical, Phanerodontia chrysosporium", "details": "10-80 mM SO, 37 °C, buffer pH 8.0", "units": {"Km": "mM", "kcat": "s⁻¹", "kcat/Km": "M⁻¹ s⁻¹"}, "values": [
      {"protein": "B1", "Km": "20.36 ± 1.34", "kcat": "2480 ± 52.4", "kcat/Km": 122000},
      {"protein": "B2", "Km": "22.6 ± 1.75", "kcat": "2250 ± 59", "kcat/Km": 99600},
      {"protein": "B3", "Km": "25.75 ± 2.08", "kcat": "1740 ± 50.8", "kcat/Km": 67500},
      {"protein": "B4", "Km": "21.71 ± 2.6", "kcat": "3020 ± 120", "kcat/Km": 139000},
      {"protein": "B5", "Km": "26.28 ± 3.79", "kcat": "1660 ± 87.3", "kcat/Km": 63100},
      {"protein": "B6", "Km": "14.16 ± 1.19", "kcat": "2350 ± 52.3", "kcat/Km": 166000}
    ]},
    {"substrate": "c1ccc([C@H]2CO2)cc1", "assay": "purified protein", "assay_type": "biochemical, Phanerodontia chrysosporium", "details": "10-80 mM SO, 37 °C, buffer pH 8.0", "units": {"Km": "mM", "kcat/Km": "M⁻¹ s⁻¹"}, "values": [
      {"protein": "B1", "Km": "57.82 ± 7.75", "kcat/Km": 36000},
      {"protein": "B2", "Km": "41.96 ± 2.07", "kcat/Km": 38300},
      {"protein": "B3", "Km": "39.23 ± 4.49", "kcat/Km": 34400},
      {"protein": "B4", "Km": "51.04 ± 2.04", "kcat/Km": 19700},
      {"protein": "B5", "Km": "43.98 ± 3.94", "kcat/Km": 25900},
      {"protein": "B6", "Km": "30.39 ± 2.99", "kcat/Km": 32500}
    ]}
  ]
}
